The data set addresses FUS(1-526)[P525L]-NLUC-FLAG (UniProt P35637 P35637:1-526, P525L). Put plainly: competition; competitive nanoBRET vs AF594-JB39; reported as KD (50% dissociation of BRET pair); table prints NLUC-HA, text NLUC-FLAG. As to conditions: tags: C-terminal NLUC-FLAG; PURExpress. As to the method:
Competitive NanoBRET binding assays were performed with unlabeled oligonucleotides JB40, JB41, and JB42. First, the relative amount of purified protein per volume of bead suspension (based on nluc activity) was determined in 2× binding buffer (200 mM potassium acetate, 40 mM Tris pH 8.0, 2 mM EDTA, 0.02% NP-40, 6 μg/mL BSA, and 1:1000 Promega Nano-Glo luciferase substrate) using an eight-point dilution curve over ˜3.5 orders of magnitude. Alexafluor594-labeled JB39 was diluted into water in opaque white 96-well plates a single concentration, and varying concentrations of JB40, JB41, or JB42, spanning the pM to low μM range were added to a final total volume of 50 μL/well. 50 μL/well of 2× binding buffer containing 10⁶ RLU (relative luminescence units) beads/well was added and plates were shaken for 10 minutes at room temperature. Nanoluciferase activity and BRET were measured in a Glowmax Discover plate reader and KD values, shown in the table below, were calculated using GraphPad Prism.

FUS(1-526)[P525L]-NLUC-FLAG, sequence (P35637 whole entry P525L, one chain of several): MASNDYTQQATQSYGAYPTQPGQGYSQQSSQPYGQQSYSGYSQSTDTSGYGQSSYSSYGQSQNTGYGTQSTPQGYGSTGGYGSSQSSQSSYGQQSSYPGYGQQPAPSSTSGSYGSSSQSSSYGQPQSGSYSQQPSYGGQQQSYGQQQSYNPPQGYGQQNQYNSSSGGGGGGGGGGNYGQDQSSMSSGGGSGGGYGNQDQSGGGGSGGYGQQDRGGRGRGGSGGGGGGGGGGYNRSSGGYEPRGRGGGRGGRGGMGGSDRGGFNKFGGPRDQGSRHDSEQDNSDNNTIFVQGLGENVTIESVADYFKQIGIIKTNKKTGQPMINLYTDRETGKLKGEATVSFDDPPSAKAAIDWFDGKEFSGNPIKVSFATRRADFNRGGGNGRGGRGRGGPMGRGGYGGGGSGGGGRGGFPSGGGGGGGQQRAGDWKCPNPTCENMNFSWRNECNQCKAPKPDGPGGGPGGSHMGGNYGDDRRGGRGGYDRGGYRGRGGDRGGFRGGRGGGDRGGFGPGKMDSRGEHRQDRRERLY

By IC50 is commonly meant the midpoint of a concentration-inhibition curve. Read a low IC50 as greater potency. On to CTGCTAGCCTCTGGATTTGA (ssDNA, full PS) [JB41 (DNA, phosphorothioate)], for which the IC50 came to 0.4 nM. For CUGCUAGCCUCUGGAUUUGA (ssRNA, full PS) [JB42 (RNA, phosphorothioate)] the value was 7.2 nM.
